Measurements as given in the supplement of paper PMC12764529.
± gives the half width of the 95% confidence interval.

What was measured:
[1] = folding stability dG unfold from chymotrypsin proteolysis; higher = more stable
Procedure, shortened: (§1)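 Digests were run with trypsin and chymotrypsin at 11 concentrations in threefold dilutions, plus a no-protease condition, on designed mini-proteins in a PA-tagged cDNA display construct. The mini-proteins were under 80 residues, had no cysteine, and were kept only when AlphaFold2 dimer inter-PAE was above 15. After sequencing, Bayesian fitting of the counts gave K50, from which unfolding free energy was derived against a sequence-predicted unfolded-state K50 and a shared folded-state K50, per protease or combined.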

[2] = folding stability dG unfold (combined trypsin and chymotrypsin); higher = more stable
Procedure, shortened: as §1

[3] = folding stability dG unfold from trypsin proteolysis; higher = more stable
Procedure, shortened: as §1

Row | Sequence | folding stability dG unfold [1] | folding stability dG unfold [2] | folding stability dG unfold [3]
1 | SAGEPLGPEKAKELAEELVERVAREIAERLGLAPEEVEVVSVELTPDGRLVLTLRVPEREFTFVFPVEGSAG [r5_565_TrMRF] | 4.89 ± 0.054 kcal/mol | 4.62 ± 0.054 kcal/mol | 3.36 ± 0.078 kcal/mol
2 | SAGERKVLVIENLTSEELIEAIREALEKSPPGLLILVPDPEKAEEIRRAFPGIPLVVLNRETGELVEVESAG [r5_391_TrMRF] | 3.46 ± 0.044 kcal/mol | 3.33 ± 0.099 kcal/mol | 3 ± 0.12 kcal/mol
3 | SAGEVKIEISVEKVGGKYIVRIKVTVDGKEYEYEFPAGKSVEELAKELEKKLNLKVKKIEVEVRKLPPKSAG [r5_181_TrROS_Hall] | 3.47 ± 0.12 kcal/mol | 3.28 ± 0.25 kcal/mol | 2.88 ± 0.11 kcal/mol
4 | SAGEVKIEVEGLPDKTVIRITIPYTAPGVGPSALLAVLKELGLPPETKLLKVEFYEEPKTVEALVVQGSAGG [r19_186_TrMRF] | 1.72 ± 0.16 kcal/mol | 1.63 ± 0.11 kcal/mol | 1.13 ± 0.088 kcal/mol
5 | SAGEYVLVEVERGGKVETFVLPPELAKELLEKYSPDSEIPVKLEGREVRLRVLPIKPKEPTPEELAKAASAG [r5_669_TrMRF] | 1.85 ± 0.14 kcal/mol | 1.41 ± 0.16 kcal/mol | 0.306 ± 0.085 kcal/mol
6 | SAGFEARVLEVVDLGDRRVALFELRDPEEGRYLLAVAVYDPETGLARVELWDPTDGRLVATPVVPVLPLSAG [r5_440_TrMRF] | 2.36 ± 0.047 kcal/mol | 2.12 ± 0.066 kcal/mol | 1.72 ± 0.027 kcal/mol
7 | SAGFKIKIEPIEVLPNGTVKYKAIIETEKEKYEVEAFYNPKTGLIYIYSPKTGSIMKINPKTGKIILIPSAG [r14_260_TrMRF] | 4.18 ± 0.11 kcal/mol | 4.03 ± 0.2 kcal/mol | 3.44 ± 0.15 kcal/mol
8 | SAGFSIVEVEPDEDTYTITIEYTLPNGTVKTKDLPLKAKNPVLLEISENEITIYLPDTNEVVTLPVSLISAG [r14_947_JUSTAS] | 1.74 ± 0.16 kcal/mol | 1.87 ± 0.29 kcal/mol | 1.92 ± 0.087 kcal/mol
9 | SAGFYFRITEITVNPDAGKLTIRNPNGQEQEIPPGGKISIKMRFYRFNDNGGKPETFEMEHTIPIPPGDSAG [r14_366_TrROS] | 3.43 ± 0.085 kcal/mol | 3.15 ± 0.12 kcal/mol | 2.62 ± 0.042 kcal/mol
10 | SAGGAEEARKAGRPVLLTVTVTAPGSGKVSTLPLLVPADRPVDVEALVAALFPADWAVTVSVSPVGGSAGGS [r8_127_JUSTAS] | 1.37 ± 0.051 kcal/mol | 1.27 ± 0.11 kcal/mol | 1.32 ± 0.028 kcal/mol
11 | SAGGAEELAKRLAEELREAGYEVEVVKVERLENGEVVITMKVRVVKDGKEVEEREIKLVLKLPEELLSAGGS [r8_102_TrROS_Hall] | 4.03 ± 0.069 kcal/mol | 3.98 ± 0.086 kcal/mol | 3.93 ± 0.097 kcal/mol
12 | SAGGAEIKITSIEYNPETKTITAKVEITVDGKKFTFTITIKLKAAPAPPTVTVTDKDIPGKTVTLTKTSAGG [r13_615_TrROS_Hall] | 2.38 ± 0.13 kcal/mol | 2.1 ± 0.24 kcal/mol | 1.51 ± 0.14 kcal/mol
13 | SAGGAFPPGEKVEVRIEVVELPGEGTYLLRAYLPGGKLLWERPFPEGELEAFAEEFRSLGFDTVEVTPSAGG [r13_765_TrMRF] | 2.736 ± 0.0075 kcal/mol | 2.69 ± 0.035 kcal/mol | 2.512 ± 0.021 kcal/mol
14 | SAGGAGDQPVVIVATGSDGSPRVFPFKTKEPFKVTVNFPDEKRVFTVPADEPFVFDAPDGDILLDASSAGGS [r16_456_TrMRF] | 0.697 ± 0.12 kcal/mol | 0.394 ± 0.095 kcal/mol | -0.23 ± 0.11 kcal/mol
15 | SAGGAITLEYEVETEEEAEKAIEELEKELKEKFGGPVKIEKATIEKTEDPSVPREKYRLKLTIEINKSAGGS [r8_171_JUSTAS] | 1.08 ± 0.11 kcal/mol | 0.858 ± 0.28 kcal/mol | 0.198 ± 0.13 kcal/mol
16 | SAGGAKIKFDIEPTNNTIRVKIEIWLPGGPVEIVEEEPVRVDPNGGIWISFRIRYPDGKPQEFQIPISAGGS [r8_449_TrROS] | 3.08 ± 0.07 kcal/mol | 2.88 ± 0.14 kcal/mol | 2.62 ± 0.057 kcal/mol
17 | SAGGAKITVDDNKITIELPLPNGKPAGSINEPLPDGSSRILVKFPDFVLHLEITPEGIKIASIDNNKDSAGG [r13_619_TrMRF] | 1.77 ± 0.064 kcal/mol | 1.51 ± 0.22 kcal/mol | 1.27 ± 0.068 kcal/mol
18 | SAGGALKELPDGSVELYYNTETGLFTVRVRHPDKPPLVFTVESPEDALKFAKALEEKGIKIDKVVPAPSAGG [r13_727_TrMRF] | 1.86 ± 0.065 kcal/mol | 2.02 ± 0.14 kcal/mol | 2.1 ± 0.068 kcal/mol
19 | SAGGAMVPVNFTLKFTYTNPDGTPVFREKPVTLPFPESDPAAAEAAARARAEAEAAARGVEVDLEVSLSAGG [r13_853_JUSTAS] | 0.219 ± 0.22 kcal/mol | 0.193 ± 0.11 kcal/mol | 0.0284 ± 0.12 kcal/mol
20 | SAGGANIHVRMENPGDGKPMSFMIPVKEVREAKQEGKDEIKIPFGGGPMKVEIEPLPDGWVHIRMRMPSAGG [r13_171_TrROS] | -0.0135 ± 0.4 kcal/mol | 0.201 ± 0.26 kcal/mol | 0.417 ± 0.27 kcal/mol
21 | SAGGAPGVPSVTVIPFDPSTGRALALVVDGDRVYVISSAVPLEVLRELGVDRVEPLPDGTLVAVSLASAGGS [r8_382_TrMRF] | 1.49 ± 0.027 kcal/mol | 1.38 ± 0.041 kcal/mol | 1.13 ± 0.02 kcal/mol

Row | Sequence | folding stability dG unfold [1] | folding stability dG unfold [2] | folding stability dG unfold [3]
22 | SAGGAPLVPVSTETYTVKDSKGNEVTITIETLPDGSYRITITYPNGEVKEYEFPSKEEAEKLEITVNPSAGG [r13_109_JUSTAS] | 3.66 ± 0.1 kcal/mol | 3.62 ± 0.14 kcal/mol | 3.63 ± 0.23 kcal/mol
23 | SAGGAPNWKIEKIEIEYPGRKIEVWRHDNMWFIHIPAPPGYPIRIKIKIEPDNGETQTQERTFPIPPPSAGG [r13_191_TrROS] | 2.83 ± 0.073 kcal/mol | 2.37 ± 0.35 kcal/mol | 1.75 ± 0.061 kcal/mol
24 | SAGGAPSSSPIPIDLGDPNDEEKLKAEVEAIEKEYAAKGVTPITVERVGENKYRIKIPTGGVATVALSAGGS [r16_703_JUSTAS] | -0.0876 ± 0.12 kcal/mol | -0.169 ± 0.12 kcal/mol | -0.55 ± 0.11 kcal/mol
25 | SAGGAPTVELKTETIETEDGTYLVVEAKVPTPDVTLEIKLPHGGETEVVYDPETGTATVVFRLPPDWLSAGG [r13_380_TrMRF] | 2.51 ± 0.053 kcal/mol | 2.25 ± 0.15 kcal/mol | 1.72 ± 0.088 kcal/mol
26 | SAGGAPVTVREEELPENSKLITIEYPDGLTLEVLEYPDKVLVREWDTATGKELSSRTLTHEELEKLLSAGGS [r8_476_JUSTAS] | 2.41 ± 0.034 kcal/mol | 2.19 ± 0.14 kcal/mol | 1.81 ± 0.052 kcal/mol
27 | SAGGARFEFTTPEGDRVTVELETTADELRVRVTVHRENEPFTLEATFPLPPPAPPAVPADVPGPSLLLSAGG [r13_691_TrMRF] | 1.62 ± 0.089 kcal/mol | 1.91 ± 0.21 kcal/mol | 2.06 ± 0.15 kcal/mol
28 | SAGGASLDDLPLEGIEVLEEEVIPLPNGSTLRKFLVKKPSPGPPELLVEVTEFVDEGSSSVSVTPLGSAGGS [r16_469_JUSTAS] | -0.301 ± 0.45 kcal/mol | 0.0997 ± 0.14 kcal/mol | 0.179 ± 0.054 kcal/mol
29 | SAGGASTVEYEITLPLDPSGSVDPDTIRAAAEAIAAADPDFVDHRIEEITITRLPDGTVRFTVTISVPSAGG [r13_462_JUSTAS] | 2.46 ± 0.049 kcal/mol | 2.53 ± 0.092 kcal/mol | 2.66 ± 0.11 kcal/mol
30 | SAGGDEIVERVRQLFEDLGFPVEIVDDDAPDGVLRVRISPEAVEKLGPLVINLPFPDIKEVRTELLPSAGGS [r8_318_TrMRF] | 1.5 ± 0.015 kcal/mol | 1.26 ± 0.025 kcal/mol | 0.968 ± 0.013 kcal/mol
31 | SAGGDGPPKFEPISIPIGDGVIKIWRSPNGSIHLEIMPPGGKPVASKEYPFPDGRKLKLDIQVKPPEDSAGG [r13_584_TrROS] | 0.252 ± 0.18 kcal/mol | 0.466 ± 0.14 kcal/mol | 0.394 ± 0.13 kcal/mol
32 | SAGGDITITKNPENDYYTITLPLPNSNSTAVAFLDPKTGTAVVINPDNPLVLVLEPNGTLKEVKLLPPSAGG [r13_101_TrMRF] | 0.566 ± 0.2 kcal/mol | 0.902 ± 0.15 kcal/mol | 1.04 ± 0.05 kcal/mol
33 | SAGGDKKWTAEFDVRKRDDTVEVTLTFTDPNGNETTETYTLTDDELAKLLAELPPEFKNVTRNEVLESAGGS [r16_298_JUSTAS] | 2.04 ± 0.11 kcal/mol | 1.85 ± 0.16 kcal/mol | 1.57 ± 0.043 kcal/mol
34 | SAGGDKNAKPIKPITISFTLEDGSKKTITATFYKDAVIVEITYINPKTGKPFTKTFVFKKKGVKLLLSAGGS [r16_419_TrMRF] | 3.19 ± 0.094 kcal/mol | 3.02 ± 0.21 kcal/mol | 2.43 ± 0.096 kcal/mol
35 | SAGGDLKIEIEPYRMGDYPMYEVKIEDPDGKDITLWMNSNNGQMMVFYPNGKPRRVDSAEDVLEALKSAGGS [r8_168_TrROS] | 0.185 ± 0.16 kcal/mol | 0.149 ± 0.1 kcal/mol | -0.243 ± 0.16 kcal/mol
36 | SAGGDNFKIEIQFFPDGHIFILIKWPNGDWILIPVPIEYPVPKRDPDGEVKEPGPVTHTHLFLIPANDSAGG [r13_236_TrROS] | 3.21 ± 0.046 kcal/mol | 2.74 ± 0.16 kcal/mol | 1.88 ± 0.097 kcal/mol
37 | SAGGDNKPKVYPITFMIPPDDIKPGDEIPIDEIADNLGIPPNYTIKIKEVQPNPEDGYYMYRIEIVWSAGGS [r16_165_TrROS] | 1.68 ± 0.085 kcal/mol | 1.65 ± 0.073 kcal/mol | 1.57 ± 0.041 kcal/mol
38 | SAGGDNVRPIKFEFKDGVKKSIYRSEDMIYINVEFYYDGRPLYRHSIEIPNIPPGDDAEIKFKIPPGSAGGS [r8_155_TrROS] | 1.55 ± 0.22 kcal/mol | 1.24 ± 0.21 kcal/mol | 0.372 ± 0.18 kcal/mol
39 | SAGGDPIEDIVKEIAEEHGYPIKNVEVEPVDPNTLVVEVQMPNGYRIKIEIPYDPDGDLNINVEWEPSAGGS [r8_284_TrROS] | 2.04 ± 0.045 kcal/mol | 1.65 ± 0.23 kcal/mol | 1.13 ± 0.11 kcal/mol
40 | SAGGDPNTARVVVLTGHPDVITPEQIRTLLENLGADEIKSVEVFTTPTSRVVRFVDSNGAPTVIFVPSAGGS [r8_86_TrMRF] | 1.99 ± 0.032 kcal/mol | 1.88 ± 0.072 kcal/mol | 1.8 ± 0.038 kcal/mol
41 | SAGGDSISDIESVNIYSFNIPSNPYPYIIAELTIPDGRKIIAIYDPSTNTVTIIIEDDGKPRIITLPASAGG [r13_960_TrMRF] | 2.9 ± 0.12 kcal/mol | 2.7 ± 0.11 kcal/mol | 2.49 ± 0.1 kcal/mol
42 | SAGGDSVYIPGSISEAIDALRENPNKTVHIMSPDGYYIKITVKWDGDGDYKIDIKWQPPPPPPDPEDKSAGG [r13_56_TrROS] | 2.3 ± 0.21 kcal/mol | 2.23 ± 0.39 kcal/mol | 2.23 ± 0.33 kcal/mol
